2 substances from PMC5430435 can be followed below.

The target in assay [1] is mouse LHR endogenously expressed in mLTC-1 cells (mouse (endogenous in mLTC-1)) (UniProt P30730).
In assay [2] the target is human LH/CGR (wild type, without BRET fusion) (human) (UniProt P22888).
In assay [3] the target is hLH/CGR C-terminally fused to the BRET donor Rluc8 (human) (UniProt P22888).

Sequence of UniProt P30730 (P30730 27-700): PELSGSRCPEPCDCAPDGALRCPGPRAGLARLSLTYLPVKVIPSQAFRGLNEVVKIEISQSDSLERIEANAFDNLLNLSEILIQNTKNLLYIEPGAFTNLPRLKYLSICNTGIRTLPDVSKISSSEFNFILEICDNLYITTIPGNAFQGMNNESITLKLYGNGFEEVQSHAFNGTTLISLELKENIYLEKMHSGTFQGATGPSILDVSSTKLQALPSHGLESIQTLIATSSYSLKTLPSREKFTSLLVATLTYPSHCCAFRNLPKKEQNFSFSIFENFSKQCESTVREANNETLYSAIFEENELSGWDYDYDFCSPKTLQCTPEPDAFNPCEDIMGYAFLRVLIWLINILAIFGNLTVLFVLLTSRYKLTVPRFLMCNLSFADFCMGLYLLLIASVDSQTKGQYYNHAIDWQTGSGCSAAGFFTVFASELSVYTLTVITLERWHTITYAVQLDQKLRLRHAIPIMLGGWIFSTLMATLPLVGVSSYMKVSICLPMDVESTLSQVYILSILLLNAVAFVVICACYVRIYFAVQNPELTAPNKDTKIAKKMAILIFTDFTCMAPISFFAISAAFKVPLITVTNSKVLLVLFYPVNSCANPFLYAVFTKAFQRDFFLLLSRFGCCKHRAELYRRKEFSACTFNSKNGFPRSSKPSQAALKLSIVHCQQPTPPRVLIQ

Regarding “human recombinant luteinizing hormone rhLH (Luveris) (from UniProt P01215 25-116; P01229 21-141) (ligand)”, in assay [1], the Cre-reporter assay (pSOM-Luc luciferase) in mLTC-1 cells, 6 hours with increasing doses; EC50 came to 318 pM; the cAMP (BRET sensor CAMYEL) in mLTC-1 cells, 30 minutes with increasing doses; EC50 is 459 pM; the cAMP (HTRF) in native mLTC-1 cells, 30 minutes with increasing doses; EC50 stood at 1980 pM; the progesterone production by mLTC-1 cells (ELISA of supernatants), 3 hours with increasing doses; EC50 stood at 306 pM. For the same substance, the testosterone production by mLTC-1 cells (HTRF of supernatants), 3 hours with increasing doses; EC50 in assay [1] turned out to be 29.1 pM. Further, in assay [2], the Cre-reporter assay (pSOM-Luc luciferase) in HEK293 cells expressing hLH/CGR, 6 hours with increasing doses; EC50 came out at 215 pM and the cAMP production (BRET sensor CAMYEL) in HEK293 cells expressing hLH/CGR, 30 minutes with increasing doses; EC50 came to 286 pM. The β-arrestin 2 recruitment (BRET between hLH/CGR-Rluc8 and yPET-β-arrestin 2) in HEK293 cells, 30 minutes with increasing doses; EC50 in assay [3] was found to be 129 nM.
As for “recombinant human chorionic gonadotropin rhCG (Ovitrelle) (from UniProt P01215 25-116; P0DN86 21-165) (ligand)”, in assay [1], the Cre-reporter assay (pSOM-Luc luciferase) in mLTC-1 cells, 6 hours with increasing doses; EC50 amounted to 25 pM; the cAMP (BRET sensor CAMYEL) in mLTC-1 cells, 30 minutes with increasing doses; EC50 worked out at 68.8 pM; the cAMP (HTRF) in native mLTC-1 cells, 30 minutes with increasing doses; EC50 turned out to be 97.4 pM; the progesterone production by mLTC-1 cells (ELISA of supernatants), 3 hours with increasing doses; EC50 came to 19.7 pM. In assay [1], this substance displayed a testosterone production by mLTC-1 cells (HTRF of supernatants), 3 hours with increasing doses; EC50 of 2.19 pM. Further, in assay [2], the Cre-reporter assay (pSOM-Luc luciferase) in HEK293 cells expressing hLH/CGR, 6 hours with increasing doses; EC50 stood at 37.5 pM and the cAMP production (BRET sensor CAMYEL) in HEK293 cells expressing hLH/CGR, 30 minutes with increasing doses; EC50 was found to be 17.6 pM. Besides, the β-arrestin 2 recruitment (BRET between hLH/CGR-Rluc8 and yPET-β-arrestin 2) in HEK293 cells, 30 minutes with increasing doses; EC50 in assay [3] was found to be 10.3 nM.
